One block for each binder: values may come before it.
Columns and labels:
[1] = biological target: T1, human ICOS expressed on cells (human, UniProt Q9Y6W8 21-199); assay: cell-based or functional assay
T1 sequence: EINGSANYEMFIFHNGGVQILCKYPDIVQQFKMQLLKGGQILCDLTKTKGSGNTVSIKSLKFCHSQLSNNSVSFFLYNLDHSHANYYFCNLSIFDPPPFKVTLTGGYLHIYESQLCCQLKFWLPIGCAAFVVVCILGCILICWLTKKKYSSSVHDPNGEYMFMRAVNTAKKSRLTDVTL

[2] = biological target: T1, human ICOS expressed on cells; assay: cell-based or functional assay; remark: listed apart in the source
[3] = biological target: FcγRIIIa on Jurkat NFAT luciferase v-variant effector cells (Promega) (human, UniProt P08637 17-254); assay: cell-based or functional assay
[4] = biological target: T2, mouse PD-L1 expressed on CHO-S cells (mouse, UniProt Q9EP73 19-290); assay: flow cytometry on CHO cells expressing mouse PD-L1, anti-human IgG PE detection
T2 construct: also called mPD-L1; CHO mouse PD-L1
Protocol: (§1) CHO-S cells untransfected (referred to as WT) or transfected with mPD-L1 were diluted in FACS buffer (PBS+1% w/v BSA+0.1% w/v sodium azide) and were distributed to a 96-well V-bottom plate (Greiner) at a density of 5×10⁴ cells per well. […] Plates were centrifuged at 300×g for 3 minutes to supernatant aspirated. 50 μL antibody or mAb² solution were added to cells and incubated at 4° C. for 1 hour. Cells were washed with 150 μL of PBS and centrifuged at 300 g for 3 minutes. Supernatant was aspirated and 150 μL PBS added. This wash step was repeated. […] Cells were incubated for 1 hour at 4° C. in the dark. Cells were washed as previously described. To fix cells, 100 μL 4% v/v paraformaldehyde was added and cells incubated for 20 minutes at 4° C., cells were pelleted by centrifugation at 300×g and the plates resuspended in 100 μL FACS buffer.

[5] = biological target: T3, human PD-L1 expressed on cells (human, UniProt Q9NZQ7 19-290); assay: flow cytometry on CHO cells expressing human PD-L1, anti-human IgG PE detection
T3 construct: also called CHO human PD-L1; CHO-S cells transfected with human PD-L1
Protocol: as §1, with “the cDNA coding for human PD-L1” for “mPD-L1”

[6] = biological target: T4, mouse ICOS-mFc (Chimerigen) (mouse, UniProt Q9WVS0 21-141, limits assumed); assay: DELFIA ELISA, coated mouse ICOS-mFc, mean
T4 construct: Bought fusion; also called mICOS; recombinant mouse ICOS protein; not shown: mouse Fc
T4 sequence: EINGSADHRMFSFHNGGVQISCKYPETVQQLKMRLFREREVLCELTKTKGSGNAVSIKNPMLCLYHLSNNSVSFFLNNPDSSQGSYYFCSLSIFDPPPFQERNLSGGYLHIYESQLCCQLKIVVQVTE
Protocol: Recombinant ICOS proteins, human ICOS-mFc or mouse ICOS-mFc (Chimerigen) were diluted in 1×PBS and added to Black Hi-bind plates (Griener) at 1 μg/ml, 50 μl/well. Recombinant PD-L1 proteins, human PD-L1-Flag-His or mouse-His were diluted in 1×PBS and added to Black Hi-bind plates (Griener) at 4 μg/ml, 50 μl/well. The plates were left overnight at 4° C. The next day plates were washed 3× with 300 μl/well of 1×PBS+0.1% Tween and blocked with 200 μl/well of 1×PBS+1% BSA blocking buffer for 1 hr at RT on a plate shaker. Plates were washed 3× with 300 μl/well of 1×PBS+0.1% Tween.
However, human-PD-L1 mAb² antibodies were diluted in 1×PBS+0.1% BSA buffer and diluted 1 in 2 from a starting working concentration of 0.066 μM over an 11 point titration. Titrated antibodies were added to the plates, 50 μl/well and left to incubate for 1 hr at R.T on a plate shaker. Plates were washed 3× with 300 μl/well of 1×PBS+0.1% Tween.
DELFIA® Eu-labelled Anti-human IgG(Perkin-Elmer) was diluted 1:500 in DELFIA Assay buffer (Perkin-Elmer) and added to the assay plate (50 μl/well), left to incubate for 1 hr at RT on a plate shaker. […] After incubation, assay was read on Envision plate reader (Perkin Elmer), Time-resolved fluorescence (TRF) was measured at 615 nm.

Chain of FcγRIIIa on Jurkat NFAT luciferase v-variant effector cells (Promega) (P08637 other isoform, or with tags, fused parts or gaps mutant limits assumed): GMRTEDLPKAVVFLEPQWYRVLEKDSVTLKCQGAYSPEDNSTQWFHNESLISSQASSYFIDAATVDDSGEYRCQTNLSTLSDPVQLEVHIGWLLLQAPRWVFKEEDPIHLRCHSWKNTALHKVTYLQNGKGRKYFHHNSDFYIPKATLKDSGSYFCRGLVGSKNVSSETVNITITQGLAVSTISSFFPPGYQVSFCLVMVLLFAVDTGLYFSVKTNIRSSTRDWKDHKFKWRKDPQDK
T3 sequence (Q9NZQ7 19-290 limits assumed): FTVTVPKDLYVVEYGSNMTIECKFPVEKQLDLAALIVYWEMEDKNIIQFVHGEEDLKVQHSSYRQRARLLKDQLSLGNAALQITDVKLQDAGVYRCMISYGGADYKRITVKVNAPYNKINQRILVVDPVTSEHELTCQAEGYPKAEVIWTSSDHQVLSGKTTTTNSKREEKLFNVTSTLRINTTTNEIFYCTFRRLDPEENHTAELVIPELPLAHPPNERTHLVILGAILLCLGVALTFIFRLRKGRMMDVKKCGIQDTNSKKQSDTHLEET
T2 sequence (Q9EP73 19-290 limits assumed): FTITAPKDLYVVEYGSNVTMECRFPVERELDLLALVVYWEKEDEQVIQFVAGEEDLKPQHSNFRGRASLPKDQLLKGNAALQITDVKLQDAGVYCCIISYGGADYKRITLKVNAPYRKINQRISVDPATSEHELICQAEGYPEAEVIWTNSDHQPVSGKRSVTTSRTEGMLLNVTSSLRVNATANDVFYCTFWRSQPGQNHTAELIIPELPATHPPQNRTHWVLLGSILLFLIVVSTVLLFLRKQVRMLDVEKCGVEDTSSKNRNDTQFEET

EC50 of IFN-γ release, plate-bound antibody, human T cells with CD3/CD28 beads, Median [1]: 5.55 nM | EC50 of IFN-γ release, plate-bound antibody, human T cells with CD3/CD28 beads, donor 276 [1]: 7.1 nM | EC50 of IFN-γ release, plate-bound antibody, human T cells with CD3/CD28 beads, donor 278 [1]: 3.8 nM | EC50 of IFN-γ release, plate-bound antibody, human T cells with CD3/CD28 beads, donor 289 [1]: ~4 nM | EC50 of IFN-γ release, plate-bound antibody, human T cells with CD3/CD28 beads, donor 295 [1]: ~11.6 nM | EC50, ADCC (BATDA dye release), ICOS-transfected CCRF-CEM targets, NK cells, Donor 326 [2]: 0.0212 nM | EC50, ADCC (BATDA dye release), ICOS-transfected CCRF-CEM targets, NK cells, Donor 334 [2]: 0.0037 nM | EC50, ADCC (BATDA dye release), ICOS-transfected CCRF-CEM targets, NK cells, Donor 341 [2]: 0.0067 nM | EC50, ADCC (BATDA dye release), ICOS-transfected CCRF-CEM targets, NK cells, Median [2]: 0.0105 nM | EC50, NFAT luciferase reporter, CHO human ICOS target cells, N=1 [3]: 0.326 nM | EC50, NFAT luciferase reporter, CHO human ICOS target cells, N=2 [3]: 0.477 nM | EC50, NFAT luciferase reporter, CHO human ICOS target cells, N=3 [3]: 0.24 nM | EC50, NFAT luciferase reporter, CHO human ICOS target cells, mean [3]: 0.347 nM | EC50, NFAT luciferase reporter, CHO mouse ICOS target cells, N=1 [3]: 0.508 nM | EC50, NFAT luciferase reporter, CHO mouse ICOS target cells, N=2 [3]: 0.754 nM | EC50, NFAT luciferase reporter, CHO mouse ICOS target cells, N=3 [3]: 0.703 nM | EC50, NFAT luciferase reporter, CHO mouse ICOS target cells, mean [3]: 0.655 nM
B1: STIM003 (antibody, human IgG1, kappa)
heavy: not shown
light: EIVLTQSPGTLSLSPGERATLSCRASQSVSRSYLAWYQQKRGQAPRLLIYGASSRATGIPDRFSGDGSGTDFTLSISRLEPEDFAVYYCHQYDMSPFTFGPGTKVDIKRTVAAPSVFIFPPSDEQLKSGTASVVCLLNNFYPREAKVQWKVDNALQSGNSQESVTEQDSKDSTYSLSSTLTLSKADYEKHKVYACEVTHQGLSSPVTKSFNRGEC
notes: also called STIM003 IgG1
binding result [4]: no binding (tested: about 2e-8 M (log M -7.7)) | binding result [5]: no binding (tested: about 2e-7 M (log M -6.7))

EC50 of IFN-γ release, plate-bound antibody, human T cells with CD3/CD28 beads, Median [1]: 8.1 nM | EC50 of IFN-γ release, plate-bound antibody, human T cells with CD3/CD28 beads, donor 276 [1]: ~6 nM | EC50 of IFN-γ release, plate-bound antibody, human T cells with CD3/CD28 beads, donor 278 [1]: ~3.8 nM | EC50 of IFN-γ release, plate-bound antibody, human T cells with CD3/CD28 beads, donor 289 [1]: 10.2 nM | EC50 of IFN-γ release, plate-bound antibody, human T cells with CD3/CD28 beads, donor 295 [1]: 12.7 nM | EC50, ADCC (BATDA dye release), ICOS-transfected CCRF-CEM targets, NK cells, Donor 326 [2]: 0.0111 nM | EC50, ADCC (BATDA dye release), ICOS-transfected CCRF-CEM targets, NK cells, Donor 334 [2]: 0.0183 nM | EC50, ADCC (BATDA dye release), ICOS-transfected CCRF-CEM targets, NK cells, Donor 341 [2]: 0.0066 nM | EC50, ADCC (BATDA dye release), ICOS-transfected CCRF-CEM targets, NK cells, Median [2]: 0.012 nM
B4: STIM003_289 (bispecific antibody, V domains shown, not shown: a dimerising Fc or GST)
VH: EVQLVESGGGVVRPGGSLRLSCVASGVTFDDYGMSWVRQAPGKGLEWVSGINWNGGDTDYSDSVKGRFTISRDNAKNSLYLQMNSLRAEDTALYYCARDFYGSGSYYHVPFDYWGQGILVTVSS
VL: EIVLTQSPGTLSLSPGERATLSCRASQSVSRSYLAWYQQKRGQAPRLLIYGASSRATGIPDRFSGDGSGTDFTLSISRLEPEDFAVYYCHQYDMSPFTFGPGTKVDIK

Continued, binder first:

B2: STIM001 (antibody, human IgG1, kappa)
heavy: not shown
light: DIVMTQSPLSLPVTPGEPASISCRSSQSLLHSNEYNYLDWYLQKPGQSPQLLIFLGSNRASGVPDRFSGSGSGTDFTLKITRVEAEDVGIYYCMQSLQTPLTFGGGTKVEIKRTVAAPSVFIFPPSDEQLKSGTASVVCLLNNFYPREAKVQWKVDNALQSGNSQESVTEQDSKDSTYSLSSTLTLSKADYEKHKVYACEVTHQGLSSPVTKSFNRGEC
notes: also called STIM001 IgG1; STIM0001
EC50 of IFN-γ release, plate-bound antibody, human T cells with CD3/CD28 beads, Median [1]: 10.7 nM | EC50 of IFN-γ release, plate-bound antibody, human T cells with CD3/CD28 beads, donor 276 [1]: ~9.9 nM | EC50 of IFN-γ release, plate-bound antibody, human T cells with CD3/CD28 beads, donor 278 [1]: ~10.2 nM | EC50 of IFN-γ release, plate-bound antibody, human T cells with CD3/CD28 beads, donor 289 [1]: ~11.2 nM | EC50 of IFN-γ release, plate-bound antibody, human T cells with CD3/CD28 beads, donor 295 [1]: 14.5 nM | EC50, ADCC (BATDA dye release), ICOS-transfected CCRF-CEM targets, NK cells, Donor 326 [2]: 0.0426 nM | EC50, ADCC (BATDA dye release), ICOS-transfected CCRF-CEM targets, NK cells, Donor 334 [2]: 0.0205 nM | EC50, ADCC (BATDA dye release), ICOS-transfected CCRF-CEM targets, NK cells, Donor 341 [2]: 0.0076 nM | EC50, ADCC (BATDA dye release), ICOS-transfected CCRF-CEM targets, NK cells, Median [2]: 0.0236 nM | EC50, NFAT luciferase reporter, CHO human ICOS target cells, N=1 [3]: 0.456 nM | EC50, NFAT luciferase reporter, CHO human ICOS target cells, N=2 [3]: 0.247 nM | EC50, NFAT luciferase reporter, CHO human ICOS target cells, N=3 [3]: 0.147 nM | EC50, NFAT luciferase reporter, CHO human ICOS target cells, mean [3]: 0.283 nM | EC50, NFAT luciferase reporter, CHO mouse ICOS target cells, N=1 [3]: 0.479 nM | EC50, NFAT luciferase reporter, CHO mouse ICOS target cells, N=2 [3]: 0.534 nM | EC50, NFAT luciferase reporter, CHO mouse ICOS target cells, N=3 [3]: 0.579 nM | EC50, NFAT luciferase reporter, CHO mouse ICOS target cells, mean [3]: 0.53 nM | EC50 [6]: 10.6 nM | binding result [4]: no binding (tested: about 2e-8 M (log M -7.7)) | binding result [5]: no binding (tested: about 2e-7 M (log M -6.7))

B3: STIM001_289 (bispecific antibody, V domains shown, not shown: a dimerising Fc or GST)
VH: QVQVVQSGAEVKKPGASVKVSCKASGYTFSTFGITWVRQAPGQGLEWMGWISAYNGDTNYAQNLQGRVIMTTDTSTSTAYMELRSLRSDDTAVYYCARSSGHYYYYGMDVWGQGTTVTVSS
VL: DIVMTQSPLSLPVTPGEPASISCRSSQSLLHSNEYNYLDWYLQKPGQSPQLLIFLGSNRASGVPDRFSGSGSGTDFTLKITRVEAEDVGIYYCMQSLQTPLTFGGGTKVEIK
EC50 of IFN-γ release, plate-bound antibody, human T cells with CD3/CD28 beads, Median [1]: 9.45 nM | EC50 of IFN-γ release, plate-bound antibody, human T cells with CD3/CD28 beads, donor 276 [1]: ~10 nM | EC50 of IFN-γ release, plate-bound antibody, human T cells with CD3/CD28 beads, donor 278 [1]: 8.9 nM | EC50 of IFN-γ release, plate-bound antibody, human T cells with CD3/CD28 beads, donor 289 [1]: 7.1 nM | EC50 of IFN-γ release, plate-bound antibody, human T cells with CD3/CD28 beads, donor 295 [1]: 11.9 nM | EC50, ADCC (BATDA dye release), ICOS-transfected CCRF-CEM targets, NK cells, Donor 326 [2]: 0.0309 nM | EC50, ADCC (BATDA dye release), ICOS-transfected CCRF-CEM targets, NK cells, Donor 334 [2]: 0.0041 nM | EC50, ADCC (BATDA dye release), ICOS-transfected CCRF-CEM targets, NK cells, Donor 341 [2]: ~0.0103 nM | EC50, ADCC (BATDA dye release), ICOS-transfected CCRF-CEM targets, NK cells, Median [2]: 0.0175 nM
